# Assay results as given in patent US12297265B2, “Antibody and use thereof” (SICHUAN KELUN-BIOTECH BIOPHARMACEUTICAL CO., LTD., priority 2018, dated 2025).
# Marks after values point to notes of the source that are not given here.
# Legend:
# L929-Claudin 18.2 cells = assay: NK cell mediated ADCC on L929-Claudin 18.2 cells (LDH); type: cell-based; details: L929-Claudin 18.2 target cells, NK92MI-CD16a effector cells
# Procedure: (§1) The steps were as follows: HEK293T-Claudin 18.2, L929-Claudin 18.2, KATOIII-Claudin 18.2 and NUGC-4 cells were harvested and centrifuged followed by adjustment of cell density. 1×10^4/well of cells were plated on a plate and incubated overnight. The medium was removed on the next day. NK92MI-CD16a cells (Huabo Biopharm) were centrifuged, resuspended in MEMA medium and adjusted to 1×10^6/mL, then 50 μL/well cells were added to the corresponding wells. […] For HEK293T-Claudin18.2, L929-Claudin18.2 and KATOIII-Claudin18.2 cells, ten antibody concentrations were tested, starting from 40 μg/mL with 5-fold dilution. For NUGC-4 cells, eleven antibody concentrations were tested, starting from 2 mg/mL with 5-fold dilution. 50 μL/well of the diluted antibodies were added to the corresponding wells and the reactions were left to stand in incubator at 37° C., 5% CO2 and incubated for 5.5h. Lysis buffer was then added to the positive control well and incubated for another 0.5h. 50 μL/well of Lactate Dehydrogenase (LDH) detection agent (DOJINDO LABORATORISE, CK12) were added to the wells and the absorbance at 490 nm were taken every 10 min on a plate reader (MD, SpectraMax M2). The results were imported into Graphpad Prism for curve fitting.
# [1] = system: HEK293T-Claudin 18.2 cells; assay: CDC killing of HEK293T-Claudin 18.2 cells (guinea pig serum, CCK8); type: cell-based; details: 20% guinea pig serum, 3 h
# Procedure: The procedure is described as follows: HEK293T-Claudin 18.2 cells were harvested and centrifuged followed by adjustment of cell density. 5×10^4/well of cells were plated on a plate and incubated overnight. […] Starting from 20 μg/mL, 10 concentrations were prepared with two-fold dilution. The original cell culture media for HEK293T-Claudin 18.2 cells was removed, and the antibody dilutions were added to the corresponding wells, 100 μL/well. 10 μl/well lysis buffer was provided as the positive control. The reactions were left to stand in incubator at 37° C., 5% CO2 and incubated for 3 h. Then, CCK8 (Rhinogen, QDY-003-D) was added at 20 μl/well and allowed to react for 2h. Absorbance at 450 nm were taken on a plate reader (MD, SpectraMax M2). The results were subjected to curve fitting by Graphpad Prism.
# human Claudin18.2 [2] = target: T1, human Claudin18.2 (Homo sapiens, UniProt P56856); assay: Cellular ELISA on NUGC-4 cells; type: binding; parameters: cell lines endogenously expressing human Claudin18.2; host or cells: NUGC-4 human gastric cancer cell line
# Procedure: Human Claudin18.2 is a four transmembrane protein and has a complex structure. Cellular ELISA was thus carried out to maintain the structure of Claudin18.2. The stable cell line L929-Claudin 18.2 constructed in Example 1 were used for detection. Specifically, L929-Claudin 18.2 adherent cells were detached by 2 mM EDTA treatment. The cells were resuspended and adjusted to 2×10^5/mL and 100 μL of the resuspension was plated into 96 well plate and incubated overnight at 37° C. The next day, the media was removed, and the plate was washed with PBS once. 100 μL/well 4% formaldehyde was added to the plate. After 30 min of incubation at room temperature, formaldehyde was removed, followed by washing twice with PBS. […] The absorbance at 450 nm was read on a plate reader (MD, SpectraMax M2) and the results were subjected to curve fitting by Graphpad Prism.
# To determine binding affinity of the candidate antibodies to cell lines endogenously expressing human Claudin18.2, FACS analysis was performed to detect human Claudin18.2 expression level on NUGC-4 cells (purchased from Japan JCRB cell bank, catalog number: JCRB0834) which endogenously expresses human Claudin18.2. […] The binding affinity between candidate antibodies and NUGC-4 cells was then determined by Cellular ELISA following the same protocol as above.
# human Claudin18.2 [3] = target: T1, human Claudin18.2; assay: Affinity of chimeric and humanized antibodies to Ba/F3-Claudin 18.2 cells (IntelliCyt); type: binding; parameters: expressed in transfected cells; host or cells: Ba/F3 (BaF/3, DSMZ ACC300), hygromycin-selected monoclonal line
# Source text: In order to evaluate the anti-Claudin18.2 humanized antibodies, codon optimized cDNAs of the heavy chains and the light chains of the candidate humanized antibodies from Example 6 were synthesized and ligated into pcDNA3.4 (by Nanjing Genscript Biotech Corporation). Expi293F cells (purchased from Thermo Incorporation) were co-transfected with pcDNA3.4 coding the heavy chain and light chain of each antibody. The antibodies were purified from the supernatant using protein A (MabSelect SuRe, GE). The affinity of the humanized antibodies to Claudin18.2 was determined using Ba/F3-Claudin18.2 cells which over-expressed human Claudin18.2. Ba/F3-Claudin18.2 cells (60000 in 10 ul buffer) were incubated with purified humanized antibodies on ice for 30 min, followed by washing with buffer (PBS+2% FBS) twice and addition of Alexa647-labeled goat-anti-human IgG Fc antibody (1:500 dilution). The cells were incubated on ice for another 30 min and analyzed by IntelliCyt.
# NUGC-4 cells = assay: NK cell mediated ADCC on NUGC-4 cells (LDH); type: cell-based, human; details: NUGC-4 target cells, NK92MI-CD16a effector cells
# Procedure: as §1
# Ba/F3-Claudin 18.2 cells = assay: ADCC activity on Ba/F3-Claudin 18.2 cells (NK-92MI_mCD16, CytoTox-Glo); type: cell-based; details: Ba/F3-Claudin 18.2 target cells, NK-92MI_mCD16 effector cells, 6h
# Procedure: In order to evaluate the ADCC activity, ten thousand Ba/F3-Claudin18.2 cells were cultured in 40 μl NK-92 media. Antibodies were serially diluted in 10 μl PBS. Fifty thousand NK-92MI_mCD16 cells in 50 μl NK-92 media were added and the reactions were incubated at 37° C. for 6h. 33.3 μl CytoTox-Glo (Promega, G9290) was added to each reaction […].
substance,measurement,setting,value
"IMAB362: Zolbetuximab (IMAB362) developed by Astellas, human-mouse chimeric IgG1 antibody targeting Claudin 18.2; control antibody, sequences from CN 101312989 B [reference compound]",Max. Cytotoxicity,L929-Claudin 18.2 cells,52%
same,maximal killing rate (CDC),[1],about 70%
same,OD450 (Max signal value),human Claudin18.2 [2],Not detected
same,Max MFI,human Claudin18.2 [3],4.99* ×10^6
same,Max. Cytotoxicity,NUGC-4 cells,35%
same,ADCC EC50,Ba/F3-Claudin 18.2 cells,0.351* μg/mL
same,Max killing rate,Ba/F3-Claudin 18.2 cells,54.17* %
